These results are taken from patent EP4568683A2 (dated 2025).

Assay [1] has as its target T1, recombinant human PSMA protein (human, UniProt Q04609 44-750).
T1 construct: On Blue native PAGE the protein appeared to be a mixture of dimer and monomer; also called recombinant human PSMA (Acro Biosciences / Acro Biosystems; printed 'Aero')
Briefly: ELISA, plates coated with 1 ug/mL recombinant human PSMA. For orientation: ELISA stands for enzyme-linked immunosorbent assay.

Assay [2] concerns the target T2, human PSMA expressed on prostate cancer cell lines (22Rv1, C4-2B, PC3-PSMA) (human, UniProt Q04609 1-750).
T2 construct: Endogenous PSMA on 22Rv1 and C4-2B cells; PC3 cells were engineered to express PSMA; also called prostate specific membrane antigen; FOLH1
Nature of the assay: flow cytometry on PSMA-expressing 22Rv1 cells, PE anti-human IgG-Fc secondary, MFI. In general terms: Flow cytometry measures light scatter and fluorescence of single cells or particles in a stream.

T1 sequence (Q04609 44-750 limits assumed): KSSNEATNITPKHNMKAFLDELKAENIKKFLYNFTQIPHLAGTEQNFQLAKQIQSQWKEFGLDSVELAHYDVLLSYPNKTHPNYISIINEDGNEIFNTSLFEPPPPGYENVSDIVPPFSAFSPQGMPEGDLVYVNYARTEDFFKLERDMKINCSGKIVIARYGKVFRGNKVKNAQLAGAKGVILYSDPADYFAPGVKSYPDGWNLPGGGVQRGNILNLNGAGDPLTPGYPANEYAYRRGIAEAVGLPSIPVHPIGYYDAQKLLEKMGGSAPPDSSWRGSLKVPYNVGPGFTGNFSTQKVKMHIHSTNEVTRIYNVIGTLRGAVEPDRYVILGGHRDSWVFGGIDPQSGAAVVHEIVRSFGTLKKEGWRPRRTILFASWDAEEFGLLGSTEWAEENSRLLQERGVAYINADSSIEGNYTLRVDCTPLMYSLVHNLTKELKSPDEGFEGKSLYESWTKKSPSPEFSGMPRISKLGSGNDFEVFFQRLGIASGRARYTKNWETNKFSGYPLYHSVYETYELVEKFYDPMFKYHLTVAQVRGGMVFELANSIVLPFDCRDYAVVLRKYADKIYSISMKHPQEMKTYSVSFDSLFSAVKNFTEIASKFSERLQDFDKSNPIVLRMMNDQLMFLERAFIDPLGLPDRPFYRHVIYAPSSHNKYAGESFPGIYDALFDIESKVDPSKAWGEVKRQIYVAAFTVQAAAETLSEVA
T2 sequence (Q04609 whole entry): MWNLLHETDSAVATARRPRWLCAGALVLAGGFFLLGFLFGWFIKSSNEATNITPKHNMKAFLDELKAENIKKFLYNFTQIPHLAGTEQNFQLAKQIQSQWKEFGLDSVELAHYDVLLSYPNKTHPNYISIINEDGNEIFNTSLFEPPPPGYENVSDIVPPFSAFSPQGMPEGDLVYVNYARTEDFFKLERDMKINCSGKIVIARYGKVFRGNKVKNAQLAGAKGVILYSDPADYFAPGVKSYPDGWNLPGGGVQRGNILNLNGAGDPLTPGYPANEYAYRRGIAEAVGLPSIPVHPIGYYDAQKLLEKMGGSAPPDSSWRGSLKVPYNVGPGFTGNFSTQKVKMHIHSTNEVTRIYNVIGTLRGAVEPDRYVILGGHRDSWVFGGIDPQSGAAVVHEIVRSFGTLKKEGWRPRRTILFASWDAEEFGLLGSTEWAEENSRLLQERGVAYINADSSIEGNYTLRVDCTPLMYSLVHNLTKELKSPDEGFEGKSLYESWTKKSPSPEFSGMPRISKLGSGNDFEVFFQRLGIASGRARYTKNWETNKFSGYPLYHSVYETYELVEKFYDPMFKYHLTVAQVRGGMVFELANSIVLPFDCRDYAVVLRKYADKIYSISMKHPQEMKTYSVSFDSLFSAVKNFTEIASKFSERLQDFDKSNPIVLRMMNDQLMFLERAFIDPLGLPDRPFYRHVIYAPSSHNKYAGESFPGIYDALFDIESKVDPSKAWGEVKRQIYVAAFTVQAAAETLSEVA

B1: benchmark antibody J591 (antibody, V domains shown)
VH: EVQLQQSGPELKKPGTSVRISCKTSGYTFTEYTIHWVKQSHGKSLEWIGNINPNNGGTTYNQKFEDKATLTVDKSSSTAYMELRSLTSEDSAVYYCAAGWNFDYWGQGTTLTVSS
VL: DIVMTQSHKFMSTSVGDRVSIICKASQDVGTAVDWYQQKPGQSPKLLIYWASTRHTGVPDRFTGSGSGTDFTLTITNVQSEDLADYFCQQYNSYPLTFGAGTMLDLK
notes: It was detected with anti-human IgG Fc secondary antibody; also called Benchmark (J591)
B1: the binding result in assay [1] and in assay [2] was “binds” throughout.
